EP1506971A1

Assays:
[1] = target: prokineticin receptor expressed endogenously on M2A7 melanoma cells (ATCC CRL-2500); test: cell-based or functional assay
[2] = target: prokineticin receptor(s) of guinea pig ileal membrane / ileal smooth muscle (guinea pig); test: cell-based or functional assay

Row | EC50, calcium mobilization in M2A7 melanoma cells (FLIPR) [1] [nM] | ED50, contraction of guinea-pig ileum longitudinal muscle [2] [nM] | Substance
1 | 12 | 0.46 | recombinant human prokineticin 1 (refolded, 6xHis-tagged, unlabeled) (from UniProt P58294 20-105) (ligand)
2 | 21 | 0.9 | recombinant human prokineticin 2 (refolded, 6xHis-tagged, unlabeled) (from UniProt Q9HC23 28-129) (ligand)
